Test [1] concerns the target P1-PE (HIV-1 clade B HXB2) (UniProt P04578). Kind of test: ELISA, P1-PE in viral liposomes V1 (P1:lipids 1 for 100), nonlinear regression.
Test [2] has the same target. Description: ELISA, P1-PE in raft liposomes R1 (P1:lipids 1 for 100), nonlinear regression. (In an ELISA, binding on a coated surface is turned into a signal by an enzyme label.)
Test [3] deals with P1 (aa 630-685) clade B HXB2 HIV-1 (HIV-1 clade B HXB2) (UniProt P04578). Description: ELISA, P1 without lipid, nonlinear regression.
Test [4] shares this target. Description: ELISA on coated peptide (FIG. 1).
In test [5] the target is P1-PE (HIV-1 clade B HXB2) (UniProt P04578). Description: ELISA, P1-PE in viral liposomes V2 (P1:lipids 1 for 20), nonlinear regression.
Test [6] shares this target.
For test [7] the target is unchanged. Description: ELISA, P1-PE in raft liposomes R2 (P1:lipids 1 for 20), nonlinear regression.

For two substances, Kd and antibody concentration of equivalent binding activity results are on record in patent US20150004190A1.

Several values for one entry are separate records, joined by “and”; a condition that tells them apart may be missing. Equal entries are not always repeated. Where two headings read alike, the source gives them in different places.

As for 2F5 IgG1 (antibody), the Kd (as a rule, the constant that tells how readily two partners part at equilibrium) in test [1] is 0.31 nM; in test [2], 0.5 nM; in test [3] it was 7.38 nM; in test [5] it was 0.41 nM; in test [6], 1.33 nM and 0.69 nM; in test [7], 0.51 nM. The antibody concentration of equivalent binding activity in test [4] was 6.25 nM.

For the substance 2F5 IgA2 (antibody), the Kd is 0.024 nM in test [1]; 0.05 nM in test [2]; 0.2 nM in test [3]; 0.024 nM in test [5]; 0.15 nM and 0.21 nM in test [6]; 0.061 nM in test [7]. Also, the antibody concentration of equivalent binding activity in test [4] was found to be 0.05 nM.
